Measurements published in patent US20180125988A1, “TARGETED XTEN CONJUGATE COMPOSITIONS AND METHODS OF MAKING SAME” (AMUNIX OPERATING INC., priority 2014, published 2018).

B1: AC398: fusion protein of FVII with AE288 (protein)
chain: AVFVTQEEAHGVLHRRRRANAFLEELRPGSLERECKEEQCSFEEAREIFKDAERTKLFWISYSDGDQCASSPCQNGGSCKDQLQSYICFCLPAFEGRNCETHKDDQLICVNENGGCEQYCSDHTGTKRSCRCHEGYSLLADGVSCTPTVEYPCGKIPILEKRNASKPQGRIVGGKVCPKGECPWQVLLLVNGAQLCGGTLINTIWVVSAAHCFDKIKNWRNLIAVLGEHDLSEHDGDEQSRRVAQVIIPSTYVPGTTNHDIALLRLHQPVVLTDHVVPLCLPERTFSERTLAFVRFSLVSGWGQLLDRGATALELMVLNVPRLMTQDCLQQSRKVGDSPNITEYMFCAGYSDGSKDSCKGDSGGPHATHYRGTWYLTGIVSWGQGCATVGHFGVYTRVSQYIEWLQKLMRSEPRPGVLLRAPFPGSPGTSESATPESGPGSEPATSGSETPGTSESATPESGPGSEPATSGSETPGTSESATPESGPGTSTEPSEGSAPGSPAGSPTSTEEGTSESATPESGPGSEPATSGSETPGTSESATPESGPGSPAGSPTSTEEGSPAGSPTSTEEGTSTEPSEGSAPGTSESATPESGPGTSESATPESGPGTSESATPESGPGSEPATSGSETPGSEPATSGSETPGSPAGSPTSTEEGTSTEPSEGSAPGTSTEPSEGSAPGSEPATSGSETPGTSESATPESGPGTSTEPSEGSAPGSSS
B2: AC404: fusion protein of FVII with AE864 (protein)
chain: AVFVTQEEAHGVLHRRRRANAFLEELRPGSLERECKEEQCSFEEAREIFKDAERTKLFWISYSDGDQCASSPCQNGGSCKDQLQSYICFCLPAFEGRNCETHKDDQLICVNENGGCEQYCSDHTGTKRSCRCHEGYSLLADGVSCTPTVEYPCGKIPILEKRNASKPQGRIVGGKVCPKGECPWQVLLLVNGAQLCGGTLINTIWVVSAAHCFDKIKNWRNLIAVLGEHDLSEHDGDEQSRRVAQVIIPSTYVPGTTNHDIALLRLHQPVVLTDHVVPLCLPERTFSERTLAFVRFSLVSGWGQLLDRGATALELMVLNVPRLMTQDCLQQSRKVGDSPNITEYMFCAGYSDGSKDSCKGDSGGPHATHYRGTWYLTGIVSWGQGCATVGHFGVYTRVSQYIEWLQKLMRSEPRPGVLLRAPFPGSPGSPAGSPTSTEEGTSESATPESGPGTSTEPSEGSAPGSPAGSPTSTEEGTSTEPSEGSAPGTSTEPSEGSAPGTSESATPESGPGSEPATSGSETPGSEPATSGSETPGSPAGSPTSTEEGTSESATPESGPGTSTEPSEGSAPGTSTEPSEGSAPGSPAGSPTSTEEGTSTEPSEGSAPGTSTEPSEGSAPGTSESATPESGPGTSTEPSEGSAPGTSESATPESGPGSEPATSGSETPGTSTEPSEGSAPGTSTEPSEGSAPGTSESATPESGPGTSESATPESGPGSPAGSPTSTEEGTSESATPESGPGSEPATSGSETPGTSESATPESGPGTSTEPSEGSAPGTSTEPSEGSAPGTSTEPSEGSAPGTSTEPSEGSAPGTSTEPSEGSAPGTSTEPSEGSAPGSPAGSPTSTEEGTSTEPSEGSAPGTSESATPESGPGSEPATSGSETPGTSESATPESGPGSEPATSGSETPGTSESATPESGPGTSTEPSEGSAPGTSESATPESGPGSPAGSPTSTEEGSPAGSPTSTEEGSPAGSPTSTEEGTSESATPESGPGTSTEPSEGSAPGTSESATPESGPGSEPATSGSETPGTSESATPESGPGSEPATSGSETPGTSESATPESGPGTSTEPSEGSAPGSPAGSPTSTEEGTSESATPESGPGSEPATSGSETPGTSESATPESGPGSPAGSPTSTEEGSPAGSPTSTEEGTSTEPSEGSAPGTSESATPESGPGTSESATPESGPGTSESATPESGPGSEPATSGSETPGSEPATSGSETPGSPAGSPTSTEEGTSTEPSEGSAPGTSTEPSEGSAPGSEPATSGSETPGTSESATPESGPGTSTEPSEGSAPGSSS
B3: XTEN_AE864: extended recombinant polypeptide of 864 amino acids, AE motif family (protein)
chain: GSPAGSPTSTEEGTSESATPESGPGTSTEPSEGSAPGSPAGSPTSTEEGTSTEPSEGSAPGTSTEPSEGSAPGTSESATPESGPGSEPATSGSETPGSEPATSGSETPGSPAGSPTSTEEGTSESATPESGPGTSTEPSEGSAPGTSTEPSEGSAPGSPAGSPTSTEEGTSTEPSEGSAPGTSTEPSEGSAPGTSESATPESGPGTSTEPSEGSAPGTSESATPESGPGSEPATSGSETPGTSTEPSEGSAPGTSTEPSEGSAPGTSESATPESGPGTSESATPESGPGSPAGSPTSTEEGTSESATPESGPGSEPATSGSETPGTSESATPESGPGTSTEPSEGSAPGTSTEPSEGSAPGTSTEPSEGSAPGTSTEPSEGSAPGTSTEPSEGSAPGTSTEPSEGSAPGSPAGSPTSTEEGTSTEPSEGSAPGTSESATPESGPGSEPATSGSETPGTSESATPESGPGSEPATSGSETPGTSESATPESGPGTSTEPSEGSAPGTSESATPESGPGSPAGSPTSTEEGSPAGSPTSTEEGSPAGSPTSTEEGTSESATPESGPGTSTEPSEGSAPGTSESATPESGPGSEPATSGSETPGTSESATPESGPGSEPATSGSETPGTSESATPESGPGTSTEPSEGSAPGSPAGSPTSTEEGTSESATPESGPGSEPATSGSETPGTSESATPESGPGSPAGSPTSTEEGSPAGSPTSTEEGTSTEPSEGSAPGTSESATPESGPGTSESATPESGPGTSESATPESGPGSEPATSGSETPGSEPATSGSETPGSPAGSPTSTEEGTSTEPSEGSAPGTSTEPSEGSAPGSEPATSGSETPGTSESATPESGPGTSTEPSEGSAP
modifications: conjugated
notes: extended recombinant polypeptide of 864 amino acids, AE motif family
B4: XTEN_AG864: extended recombinant polypeptide of 864 amino acids, AG motif family (protein)
chain: GASPGTSSTGSPGSSPSASTGTGPGSSPSASTGTGPGTPGSGTASSSPGSSTPSGATGSPGSSPSASTGTGPGASPGTSSTGSPGTPGSGTASSSPGSSTPSGATGSPGTPGSGTASSSPGASPGTSSTGSPGASPGTSSTGSPGTPGSGTASSSPGSSTPSGATGSPGASPGTSSTGSPGTPGSGTASSSPGSSTPSGATGSPGSSPSASTGTGPGSSPSASTGTGPGSSTPSGATGSPGSSTPSGATGSPGASPGTSSTGSPGASPGTSSTGSPGASPGTSSTGSPGTPGSGTASSSPGASPGTSSTGSPGASPGTSSTGSPGASPGTSSTGSPGSSPSASTGTGPGTPGSGTASSSPGASPGTSSTGSPGASPGTSSTGSPGASPGTSSTGSPGSSTPSGATGSPGSSTPSGATGSPGASPGTSSTGSPGTPGSGTASSSPGSSTPSGATGSPGSSTPSGATGSPGSSTPSGATGSPGSSPSASTGTGPGASPGTSSTGSPGASPGTSSTGSPGTPGSGTASSSPGASPGTSSTGSPGASPGTSSTGSPGASPGTSSTGSPGASPGTSSTGSPGTPGSGTASSSPGSSTPSGATGSPGTPGSGTASSSPGSSTPSGATGSPGTPGSGTASSSPGSSTPSGATGSPGSSTPSGATGSPGSSPSASTGTGPGSSPSASTGTGPGASPGTSSTGSPGTPGSGTASSSPGSSTPSGATGSPGSSPSASTGTGPGSSPSASTGTGPGASPGTSSTGSPGASPGTSSTGSPGSSTPSGATGSPGSSPSASTGTGPGASPGTSSTGSPGSSPSASTGTGPGTPGSGTASSSPGSSTPSGATGSPGSSTPSGATGSPGASPGTSSTGSP
modifications: conjugated
notes: extended recombinant polypeptide of 864 amino acids, AG motif family

Tests used:
[1] = Analytical size exclusion chromatography of XTEN fusion proteins; type: physicochemical; conditions: for RH (nm), hydrodynamic radius / Apparent MW (kDa): SEC; for Apparent MW (kDa): BioRad calibration standard; for Apparent Molecular Weight Factor: ratio of apparent molecular weight to calculated molecular weight
[2] = Biodegradation of XTEN in rat plasma, rat kidney homogenate and PBS buffer (SDS-PAGE); type: in vitro ADME; conditions: 0.3 mg/ml
Experimental: Purified XTEN_AE864 protein was incubated at a final concentration of 0.3 mg/ml in rat plasma (Bioreclamation IVT, Baltimore, Md.), rat kidney homogenate (Bioreclamation), or PBS buffer for up to 7 days at 37° C. Samples were withdrawn at time 0, 4 hours, 24 hours, and 7 days, were immediately frozen and stored at -80° C., then thawed right before analysis. XTEN was extracted from the samples by methanol precipitation. Briefly, methanol pre-chilled at −20° C. was added to the samples at a volume ratio of 2:1 and mixed by vortex. The mixture was kept at −20° C. for 30 min and then centrifuged at 14,000 rpm for 20 min at 8° C. The supernatant was subjected to centrifugal evaporation for 1-2 hours to take the sample to complete dryness, and was then resuspended in PBS buffer to the original volume before methanol extraction. The reconstituted samples were analyzed by SDS-PAGE with staining using Stains-all.

[3] = molecular target: T1, human neutrophil elastase (Homo sapiens, UniProt P08246); assay: Neutrophil elastase digestion of XTEN_AE864 (SDS-PAGE); type: biochemical; conditions: 10 μM XTEN, 37° C., 2 hours
T1 construct: purchased R&D Systems
T1 sequence (P08246 30-267): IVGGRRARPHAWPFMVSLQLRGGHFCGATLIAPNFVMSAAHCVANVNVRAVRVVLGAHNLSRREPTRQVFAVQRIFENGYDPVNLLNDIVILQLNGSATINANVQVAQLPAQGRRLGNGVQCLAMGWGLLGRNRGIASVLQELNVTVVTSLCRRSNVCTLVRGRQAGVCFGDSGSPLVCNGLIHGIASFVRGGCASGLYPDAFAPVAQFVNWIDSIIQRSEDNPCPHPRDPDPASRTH
Experimental: It had been speculated that neutrophil elastase, a serine protease with broad substrate specificity, may be able to degrade XTEN. […] 10 μM of purified XTEN_AE864 was incubated with 1:1000 or 1:100 molar ratio (elastase:XTEN) of human neutrophil elastase (R&D Systems) at 37° C. for 2 hours. Samples before and after digestion were analyzed on SDS-PAGE gel followed with coomassie staining (FIG. 86).

[4] = Half-life of XTEN_AG864 in cynomolgus monkeys; type: in vivo
Description: The methods and materials utilized were adapted from those of Example 1, above.

Row | Molecule | RH (nm), hydrodynamic radius [1] [nm] | Apparent MW (kDa) [1] [kDa] | Apparent Molecular Weight Factor [1] | also measured
1 | B1 | 8.2 | 650 | 8.5 | –
2 | B2 | 10.1 | 1900 | 14.7 | –
3 | B3 | – | – | – | degradation in PBS buffer ([2]; PBS buffer, 7 day incubation at 37° C.): only minor signs of degradation; degradation in rat kidney homogenate ([2]; rat kidney homogenate, 37° C., by the 24 hour interval): rapidly degraded; degradation in rat plasma ([2]; rat plasma, 7 day incubation at 37° C.): only minor signs of degradation; degradation by neutrophil elastase ([3]; 1:100 molar ratio (elastase:XTEN)): completely digested; degradation by neutrophil elastase ([3]; 1:1000 molar ratio (elastase:XTEN)): Partial degradation
4 | B4 | – | – | – | half-life [4]: exceeding 60 h
